Reference: PMC12783888
* marks the point of attachment. AMC = Cc1cc(=O)oc2cc(N*)ccc12

Assays:
[1] = target: SplA allelic variant A1 (Staphylococcus aureus) (UniProt Q2FFS9)
[2] = target: SplA allelic variant A3 (Staphylococcus aureus) (UniProt Q2FFS9)
[3] = target: SplA allelic variant A4 (Staphylococcus aureus) (UniProt Q2FFS9)
[4] = target: SplA allelic variant A5 (Staphylococcus aureus) (UniProt Q2FFS9)
[5] = target: SplA allelic variant A6 (Staphylococcus aureus) (UniProt Q2FFS9)
[6] = target: T1, SplA wildtype (S. aureus strain USA300 variant) (Staphylococcus aureus strain USA300) (UniProt Q2FFS9)
T1 sequence: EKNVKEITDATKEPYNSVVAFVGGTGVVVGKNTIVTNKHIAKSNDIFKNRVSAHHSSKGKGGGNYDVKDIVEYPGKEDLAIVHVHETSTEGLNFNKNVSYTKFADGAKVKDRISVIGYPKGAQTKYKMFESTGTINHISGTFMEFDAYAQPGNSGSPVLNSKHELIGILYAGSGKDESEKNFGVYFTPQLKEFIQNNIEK

**Q.** For Ac-Tyr-Leu-Tyr-{AMC}, which KM of Michaelis-Menten kinetics, cleavage of the fluorogenic substrate (AMC release) [1] is on record?
**A.** 54 µM

**Q.** And the KM of Michaelis-Menten kinetics, cleavage of the fluorogenic substrate (AMC release) [2]?
**A.** 39 µM

**Q.** What about the KM of Michaelis-Menten kinetics, cleavage of the fluorogenic substrate (AMC release) [3] of the same molecule?
**A.** 65 µM

**Q.** What about the KM of Michaelis-Menten kinetics, cleavage of the fluorogenic substrate (AMC release) [4] of the same molecule?
**A.** 35 µM

**Q.** What about the KM of Michaelis-Menten kinetics, cleavage of the fluorogenic substrate (AMC release) [5] of the same molecule?
**A.** 109 µM

**Q.** What about the KM of Michaelis-Menten kinetics, cleavage of the fluorogenic substrate (AMC release) [6] of the same molecule?
**A.** 49 µM

B1: Ac-VWLY-AMC (peptide)
peptide: Ac-VWLY-{AMC}
SMILES: CC(=O)N[C@H](C(=O)N[C@@H](Cc1c[nH]c2ccccc12)C(=O)N[C@@H](CC(C)C)C(=O)N[C@@H](Cc1ccc(O)cc1)C(=O)Nc1ccc2c(C)cc(=O)oc2c1)C(C)C
**Q.** How did the KM of Michaelis-Menten kinetics, cleavage of the fluorogenic substrate (AMC release) [1] turn out when B1 was run?
**A.** 26 µM

**Q.** And the KM of Michaelis-Menten kinetics, cleavage of the fluorogenic substrate (AMC release) [2]?
**A.** 11 µM

**Q.** And the KM of Michaelis-Menten kinetics, cleavage of the fluorogenic substrate (AMC release) [3]?
**A.** 23 µM

**Q.** What about the KM of Michaelis-Menten kinetics, cleavage of the fluorogenic substrate (AMC release) [4] of the same molecule?
**A.** 13 µM

**Q.** And the KM of Michaelis-Menten kinetics, cleavage of the fluorogenic substrate (AMC release) [5]?
**A.** 19 µM

**Q.** And the KM of Michaelis-Menten kinetics, cleavage of the fluorogenic substrate (AMC release) [6]?
**A.** 11 µM
